From patent US11840574B2, “Anti-DR5 antibody and use thereof” (DONG-A ST CO., LTD., priority 2017, dated 2023)

Molecular target: Human DR5 (Homo sapiens, UniProt O14763)
Experiment: Binding affinity of antibody to human DR5 (BIAcore, CM5 chip)
Details: for Ka(1/Ms) / Ka: association rate, Human DR5, 1:1 Langmuir binding model; for Kd: equilibrium dissociation constant, Human DR5
Description: In order to measure affinity, human DR5 was coupled to carboxylated dextran biosensor chips (CM5, GE) according to the manufacturer's instruction. Association and dissociation rates were assessed by injecting IgG proteins that were 2-fold serially diluted to 5 nM, 2.5 nM, 1.25 nM, 0.625 nM, 0.313 nM, and 0.156 nM.
Association and dissociation rates were depicted in association and dissociation sensorgrams and calculated using a simple 1:1 Langmuir binding model (BIAcore X100 Evaluation Software, ver. 2.0). The equilibrium dissociation constants (KD), which is the ratio of dissociation constant (Kd) to association constant (Ka), were confirmed to be in the sub-nanomolar range. Measurements of the binding of antibody D0 and DA1 to DA35 of the present disclosure to DR5 are given in Table 11 below (antibody names are given as the names of the clones from which the antibodies were derived). A representative sensorgram for D0 is depicted in FIG. 1.

Row | Molecule | Ka(1/Ms) | Kd [nM] | Ka [M⁻¹ s⁻¹]
1 | DA31: humanized or deimmunized variant of parental clone D0; CDRs SEQ ID NO 1, 2, 7 / 4, 10, 13 (antibody, V domains shown) VH: AVTLDESGGGLQTPGGGLSLVCKGSGFTFSSFNMLWVRQAPGKGLEWVAGIGKSDRYTGYGSAVKGRATISRDDGQSTARLQMNSLRAEDTGTYYCVKDAGSGCGSGGWTGACIDTWGHGTEVIVSS VL: LTQPSSVSANLGGTVEITCSGGDSYAGSYYYGWYQQKAPGSAPVTVIYNNNNRPSNIPSRFSGSTSGSTATLTITGVQAEDEATYFCGSRDSSYVGIFGAGTTLTVL | 1.24 × 10^06 1/Ms | 0.0706 | 
2 | DA33: humanized or deimmunized variant of parental clone D0; CDRs SEQ ID NO 1, 2, 7 / 4, 10, 13 (antibody, V domains shown) VH: AVTLDESGGGLQTPGGGLSLVCKGSGFTFSSFNMLWVRQAPGKGLEWVAGIGKSDRYTGYGSAVKGRATISRDDGQSTARLQLNNLRAEDTAVYYCVKDAGSGCGSGGWTGACIDTWGHGTEVIVSS VL: LTQPSSVSANLGGTVEITCSGGDSYAGSYYYGWYQQKAPGSAPVTVIYNNNNRPSNIPSRFSGSTSGSTATLTITGVQAEDEATYFCGSRDSSYVGIFGAGTTLTVL | 1.24 × 10^06 1/Ms | 0.0788 | 
3 | DA32: humanized or deimmunized variant of parental clone D0; CDRs SEQ ID NO 1, 2, 7 / 4, 10, 13 (antibody, V domains shown) VH: AVTLDESGGGLQTPGGGLSLVCKGSGFTFSSFNMLWVRQAPGKGLEWVAGIGKSDRYTGYGSAVKGRATISRDDGQSTVRLQLNNLRAEDTAVYYCVKDAGSGCGSGGWTGACIDTWGHGTEVIVSS VL: LTQPSSVSANLGGTVEITCSGGDSYAGSYYYGWYQQKAPGSAPVTVIYNNNNRPSNIPSRFSGSTSGSTATLTITGVQAEDEAVYFCGSRDSSYVGIFGAGTTLTVL | 1.14 × 10^06 1/Ms | 0.0751 | 
4 | DA1: humanized or deimmunized variant of parental clone D0; CDRs SEQ ID NO 1, 2, 7 / 4, 10, 13 (antibody, V domains shown) VH: EVQLVESGGGLVQPGGSLRLSCAASGFTFSSFNMLWVRQAPGKGLEWVAGIGKSDRYTGYGSAVKGRFTISRDDSKSTVYLQMNSLRAEDTAVYYCVRDAGSGCGSGGWTGACIDTWGQGTLVTVSS VL: DIQMTQSPSSLSASVGDRVTITCSGGDSYAGSYYYGWYQQKPGKAPKTLIYNNNNRPSGVPSRFSGSTSGTDFTLTISSLQPEDFATYYCGSRDSSYVGIFGQGTKVEIK |  |  | 4.9e+06
5 | DA2: humanized or deimmunized variant of parental clone D0; CDRs SEQ ID NO 1, 2, 7 / 4, 10, 13 (antibody, V domains shown) VH: EVQLVESGGGLVQPGGSLRLSCAASGFTFSSFNMLWVRQAPGKGLEWVAGIGKSDRYTGYGSAVKGRFTISRDDSKSTVYLQMNSLRAEDTAVYYCVRDAGSGCGSGGWTGACIDTWGQGTLVTVSS VL: DIQMTQSPSSLSASVGDRVTITCSGGDSYAGSYYYGWYQQKPGKAPKTLIYNNNNRPSGVPSRFSGSRSGTDFTLTISSLQPEDFATYYCGSRDSSYVGIFGQGTKVEIK |  |  | 1.9e+06
6 | DA3: humanized or deimmunized variant of parental clone D0; CDRs SEQ ID NO 1, 2, 7 / 4, 10, 13 (antibody, V domains shown) VH: EVQLVESGGGLVQPGGSLRLSCAASGFTFSSFNMLWVRQAPGKGLEWVAGIGKSDRYTGYGSAVKGRFTISRDTSKSTVYLQMNSLRAEDTAVYYCVRDAGSGCGSGGWTGACIDTWGQGTLVTVSS VL: DIQMTQSPSSLSASVGDRVTITCSGGDSYAGSYYYGWYQQKPGKAPKTLIYNNNNRPSGVPSRFSGSTSGTDFTLTISSLQPEDFATYYCGSRDSSYVGIFGQGTKVEIK |  |  | 4.9e+06

Continued, values first:

Row | Ka(1/Ms) | Kd [nM] | Ka [M⁻¹ s⁻¹] | Molecule
7 | 1.03 × 10^06 1/Ms | 0.0774 |  | DA30: humanized or deimmunized variant of parental clone D0; CDRs SEQ ID NO 1, 2, 7 / 4, 10, 13 (antibody, V domains shown) VH: AVTLDESGGGLQTPGGGLSLVCKGSGFTFSSFNMLWVRQAPGKGLEWVAGIGKSDRYTGYGSAVKGRATISRDDGQSTAYLQMNSLRAEDTGTYYCVKDAGSGCGSGGWTGACIDTWGHGTEVIVSS VL: LTQPSSVSANLGGTVEITCSGGDSYAGSYYYGWYQQKAPGSAPVTVIYNNNNRPSNIPSRFSGSTSGSTATLTITGVQAEDEATYYCGSRDSSYVGIFGAGTTLTVL
8 | 1.13 × 10^06 1/Ms | 0.0801 |  | DA35: humanized or deimmunized variant of parental clone D0; CDRs SEQ ID NO 1, 2, 7 / 4, 10, 13 (antibody, V domains shown) VH: AVTLDESGGGLQTPGGGLSLVCKGSGFTFSSFNMLWVRQAPGKGLEWVAGIGKSDRYTGYGSAVKGRATISRDDGQSTARLQMNSLRAEDTAVYYCVKDAGSGCGSGGWTGACIDTWGHGTEVIVSS VL: LTQPSSVSANLGGTVEITCSGGDSYAGSYYYGWYQQKAPGSAPVTVIYNNNNRPSNIPSRFSGSTSGSTATLTITGVQAEDEATYFCGSRDSSYVGIFGAGTTLTVL
9 | 1.00 × 10^06 1/Ms | 0.0942 |  | DA34: humanized or deimmunized variant of parental clone D0; CDRs SEQ ID NO 1, 2, 7 / 4, 10, 13 (antibody, V domains shown) VH: AVTLDESGGGLQTPGGGLSLVCKGSGFTFSSFNMLWVRQAPGKGLEWVAGIGKSDRYTGYGSAVKGRATISRDDGQSTAYLQMNSLRAEDTAVYYCVKDAGSGCGSGGWTGACIDTWGHGTEVIVSS VL: LTQPSSVSANLGGTVEITCSGGDSYAGSYYYGWYQQKAPGSAPVTVIYNNNNRPSNIPSRFSGSTSGSTATLTITGVQAEDEATYYCGSRDSSYVGIFGAGTTLTVL
10 |  |  | 1.2e+06 | DA4: humanized or deimmunized variant of parental clone D0; CDRs SEQ ID NO 1, 2, 7 / 4, 10, 13 (antibody, V domains shown) VH: EVQLVESGGGLVQPGGSLRLSCAASGFTFSSFNMLWVRQAPGKGLEWVAGIGKSDRYTGYGSAVKGRFTISRDDSKNTVYLQMNSLRAEDTAVYYCVRDAGSGCGSGGWTGACIDTWGQGTLVTVSS VL: DIQMTQSPSSLSASVGDRVTITCSGGDSYAGSYYYGWYQQKPGKAPKTLIYNNNNRPSGVPSRFSGSTSGTDFTLTISSLQPEDFATYYCGSRDSSYVGIFGQGTKVEIK
